PMC12646667, “Defective Notch1 signaling in endothelial cells drives pathogenesis in a mouse model of Adams-Oliver syndrome” (The Journal of Clinical Investigation, 2025)
Several values for one entry are separate records, joined by “and”; a condition that tells them apart may be missing. Identical values can stand only once. Each block holds one binder with its values, some of them ahead of it.

Legend:
RBPJ R91G = RBPJ R91G (Mus musculus, UniProt P31266 53-474, R91G); experiment: EMSA; 5, 25, 125 nM protein; ITC: 50 mM sodium phosphate pH 6.5, 150 mM NaCl, 10 C, DNA 100 uM in syringe, protein 10 uM in cell; EMSA: 20 min at room temperature, buffer as previously described (not given); conditions: protein: recombinant; tags: GST-fusion vector pGEX-6P-1; label: 5' IRDye-700 on bottom strand; blunt; S3 primer annealed to S2 and filled in with DNA polymerase I
[1] = molecular target: T1, mouse RBPJ S358R, conserved core (residues 53-474) (mouse, UniProt P31266 53-474, S358R); experiment: ITC; MicroCal VP-ITC, 25 °C, 50 mM sodium phosphate pH 6.5, 150 mM NaCl; ligand (RAM peptide or SMT3-SHARP) in the syringe, RBPJ in the cell: 100 µM into 10 µM (R91G), 50 µM into 5 µM (F92V), 40 µM into 4 µM (S358R); 20 injections of 14 µL; 1-site binding model; mean and SD of triplicates; conditions: both partners purified
T1 construct: RBPJ (Rbpj), mouse, conserved core, residues 53-474, with S358R; Variant found in human AOS patients (human S332R), put into the mouse protein by mutagenesis; also called analogous to human S332R; source: pGEX-6P-1 plasmid, QuikChange mutagenesis

[2] = molecular target: T2, mouse RBPJ F92V, conserved core (residues 53-474) (mouse, UniProt P31266 53-474, F92V); experiment: as above; conditions: both partners purified
T2 construct: RBPJ (Rbpj), mouse, conserved core, residues 53-474, with F92V; Variant found in human AOS patients (human F66V), put into the mouse protein by mutagenesis; also called analogous to human F66V; source: pGEX-6P-1 plasmid, QuikChange mutagenesis

[3] = molecular target: T3, mouse RBPJ R91G, conserved core (residues 53-474) (mouse, UniProt P31266 53-474, R91G); experiment: as above; conditions: both partners purified
T3 construct: RBPJ (Rbpj), mouse, conserved core, residues 53-474, with R91G; Variant found in human AOS patients (human R65G), put into the mouse protein by mutagenesis; also called analogous to human R65G; source: pGEX-6P-1 plasmid, QuikChange mutagenesis

[4] = molecular target: T4, RBPJ 53-474 (WT mouse RBPJ, conserved core) (mouse, UniProt P31266 53-474); experiment: ITC; MicroCal VP-ITC; NOTCH1 peptide or SMT3-SHARP in the syringe (40-100 uM), RBPJ in the cell (4-10 uM); 25 C (298 K); 50 mM sodium phosphate pH 6.5, 150 mM NaCl; 20 injections of 14 uL; 1-site binding model; each of three replicates printed on its own; conditions: both partners purified
T4 construct: RBPJ, mouse, conserved core (NTD, BTD, linker, CTD), residues 53-474; PDB 3BRG (RBPJ on DNA) was used for modelling only; also called WT RBPJ

RBPJ 53-474, R91G = molecular target: T5, RBPJ 53-474, R91G (mouse, UniProt P31266 53-474, R91G); experiment: as above; conditions: both partners purified
T5 construct: RBPJ, mouse, conserved core, residues 53-474, with R91G (analogous to the human AOS variant R65G); AOS-associated human variant placed in the mouse protein; also called RBPJ^R91G (human R65G)

RBPJ 53-474, K195E [5] = molecular target: T6, RBPJ 53-474, K195E (mouse, UniProt P31266 53-474, K195E); experiment: as above; conditions: both partners purified
T6 construct: RBPJ, mouse, conserved core, residues 53-474, with K195E (analogous to the human AOS variant K169E); AOS-associated human variant placed in the mouse protein; also called RBPJ^K195E (human K169E)

RBPJ 53-474, E89G [6] = molecular target: T7, RBPJ 53-474, E89G (mouse, UniProt P31266 53-474, E89G); experiment: as above; conditions: both partners purified
T7 construct: RBPJ, mouse, conserved core, residues 53-474, with E89G (analogous to the human AOS variant E63G); AOS-associated human variant placed in the mouse protein; also called RBPJ^E89G (human E63G)

RBPJ 53-474, F92V [7] = molecular target: T8, RBPJ 53-474, F92V (mouse, UniProt P31266 53-474, F92V); experiment: as above; conditions: both partners purified
T8 construct: RBPJ, mouse, conserved core, residues 53-474, with F92V (analogous to the human AOS variant F66V); AOS-associated human variant placed in the mouse protein; also called RBPJ^F92V (human F66V)

RBPJ 53-474, S358R [8] = molecular target: T9, RBPJ 53-474, S358R (mouse, UniProt P31266 53-474, S358R); experiment: as above; conditions: both partners purified
T9 construct: RBPJ, mouse, conserved core, residues 53-474, with S358R (analogous to the human AOS variant S332R); AOS-associated human variant placed in the mouse protein; also called RBPJ^S358R (human S332R)

[9] = molecular target: T4, RBPJ 53-474 (WT mouse RBPJ, conserved …); experiment: as above; conditions: both partners purified; remark: listed apart in the source
RBPJ 53-474, K195E [10] = molecular target: T6, RBPJ 53-474, K195E; experiment: as above; conditions: both partners purified; remark: listed apart in the source
RBPJ 53-474, E89G [11] = molecular target: T7, RBPJ 53-474, E89G; experiment: as above; conditions: both partners purified; remark: listed apart in the source
RBPJ 53-474, F92V [12] = molecular target: T8, RBPJ 53-474, F92V; experiment: as above; conditions: both partners purified; remark: listed apart in the source
RBPJ 53-474, S358R [13] = molecular target: T9, RBPJ 53-474, S358R; experiment: as above; conditions: both partners purified; remark: listed apart in the source

T8 sequence (P31266 53-474 F92V): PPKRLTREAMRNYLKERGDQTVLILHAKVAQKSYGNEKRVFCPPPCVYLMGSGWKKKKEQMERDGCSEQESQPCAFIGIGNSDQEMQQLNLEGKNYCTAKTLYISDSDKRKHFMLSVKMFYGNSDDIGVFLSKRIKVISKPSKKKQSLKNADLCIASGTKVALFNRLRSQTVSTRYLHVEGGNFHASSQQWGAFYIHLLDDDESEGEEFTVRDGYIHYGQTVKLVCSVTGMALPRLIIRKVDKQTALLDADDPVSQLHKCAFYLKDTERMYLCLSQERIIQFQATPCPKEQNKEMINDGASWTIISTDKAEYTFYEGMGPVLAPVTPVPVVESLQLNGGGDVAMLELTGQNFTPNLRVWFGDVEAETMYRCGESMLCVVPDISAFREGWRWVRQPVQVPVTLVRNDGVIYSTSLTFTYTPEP
T4 sequence (P31266 53-474): as the sequence (P31266 53-474 F92V) above, with V40F counted along it
T6 sequence (P31266 53-474 K195E): as the sequence (P31266 53-474 F92V) above, with V40F, K143E counted along it
T9 sequence (P31266 53-474 S358R): as the sequence (P31266 53-474 F92V) above, with V40F, S306R counted along it
T7 sequence (P31266 53-474 E89G): as the sequence (P31266 53-474 F92V) above, with E37G, V40F counted along it
T5 sequence (P31266 53-474 R91G): as the sequence (P31266 53-474 F92V) above, with R39G, V40F counted along it
T2 sequence (P31266 53-474 F92V): as the sequence (P31266 53-474 F92V) above
T1 sequence (P31266 53-474 S358R): as the sequence (P31266 53-474 F92V) above, with V40F, S306R counted along it
T3 sequence (P31266 53-474 R91G): as the sequence (P31266 53-474 F92V) above, with R39G, V40F counted along it
RBPJ R91G, sequence (P31266 53-474 R91G): as the sequence (P31266 53-474 F92V) above, with R39G, V40F counted along it

Ka [4]: 5e+07 M⁻¹ (2×) and 4.4e+07 M⁻¹ | Kd [4]: 20 nM and 22 nM | stoichiometry N [4]: 1.21 and 1.2 and 1.14 | Ka (RBPJ 53-474, R91G): 6.04e+07 M⁻¹ and 6.65e+07 M⁻¹ and 3.08e+07 M⁻¹ | Kd (RBPJ 53-474, R91G): 17 nM and 15 nM and 32 nM | stoichiometry N (RBPJ 53-474, R91G): 1.06 and 1.03 and 0.92 | Ka (RBPJ 53-474, K195E [5]): 7.46e+07 M⁻¹ and 3.08e+07 M⁻¹ and 4.69e+07 M⁻¹ | Kd (RBPJ 53-474, K195E [5]): 13 nM and 32 nM and 21 nM | stoichiometry N (RBPJ 53-474, K195E [5]): 1.33 and 1.2 and 1.23 | Ka (RBPJ 53-474, E89G [6]): 6.24e+07 M⁻¹ and 7.22e+07 M⁻¹ and 3.37e+07 M⁻¹ | Kd (RBPJ 53-474, E89G [6]): 16 nM and 14 nM and 30 nM | stoichiometry N (RBPJ 53-474, E89G [6]): 0.84 and 0.73 and 1.32 | Ka (RBPJ 53-474, F92V [7]): 1.42e+08 M⁻¹ and 1.04e+08 M⁻¹ and 5.61e+07 M⁻¹ | Kd (RBPJ 53-474, F92V [7]): 7 nM and 10 nM and 18 nM | stoichiometry N (RBPJ 53-474, F92V [7]): 0.85 and 0.75 and 0.63 | stoichiometry N (RBPJ 53-474, S358R [8]): 0.86 and 0.72 and 0.77
B3: human NOTCH1 peptide consisting of residues 1754-1781 (peptide, UniProt P46531 1754-1781, looked up)
peptide: VLLSRKRRRQHGQLWFPEGFKVSEASKK
notes: NOTCH1, human, RAM region, residues 1754-1781; also called hN1 RAM 1754-1781; NICD1

Kd [1]: 7.9 nM | Kd [2]: 10.3 nM
B4: SMT3-SHARP 2776-2833, fusion protein with the region of the human SHARP co-repressor that binds RBPJ (domain or fragment, UniProt Q96T58 2776-2833, looked up)
chain: RASANENSRFHPGSMPVIDDRPADAGSGAGLRVNTSEGVVLLSYSGQKTEGPQRISAK
notes: SHARP (SPEN), human, residues 2776-2833; not shown: SMT3, N-terminal, kept

stoichiometry N [9]: 1.2 and 1 and 1.06 | Kd (RBPJ 53-474, K195E [10]): 12 nM and 35 nM and 17 nM | stoichiometry N (RBPJ 53-474, K195E [10]): 0.94 and 0.84 and 0.95 | stoichiometry N (RBPJ 53-474, E89G [11]): 1.37 and 1.34 and 1.15 | Ka (RBPJ 53-474, F92V [12]): 8.9e+07 M⁻¹ (2×) and 1.2e+08 M⁻¹ | Kd (RBPJ 53-474, F92V [12]): 11 nM and 11.3 nM and 9 nM | stoichiometry N (RBPJ 53-474, F92V [12]): 1.17 and 1.09 and 1.12 | Ka (RBPJ 53-474, S358R [13]): 9.83e+07 M⁻¹ and 1.28e+08 M⁻¹ and 1.73e+08 M⁻¹ | Kd (RBPJ 53-474, S358R [13]): 10 nM and 7.8 nM and 6 nM | stoichiometry N (RBPJ 53-474, S358R [13]): 0.89 and 1.02 and 1.08
B5: SMT3-MINT 2776-2833 (human SHARP residues 2776-2833 with N-terminal SMT3 and His tag) (domain or fragment, UniProt Q96T58 2776-2833, looked up)
chain: RASANENSRFHPGSMPVIDDRPADAGSGAGLRVNTSEGVVLLSYSGQKTEGPQRISAK
notes: SHARP (MINT), human, residues 2776-2833; not shown: SMT3, N-terminal, kept

Further lines, the binder ahead of its results:

B1: EMSA probe 1xCSL (1016ic) (dsDNA)
DNA 1: CGAACGAGGCAAACCTAGGCTAGAGGCACCGTGGGAAACTAGTGCGGGCGTGGCT
DNA 2: AGCCACGCCCGCACTAGTTTCCCACGGTGCCTCTAGCCTAGGTTTGCCTCGTTCG
binding result (RBPJ R91G): no binding

B2: RBPJ association module (RAM) domain peptide of the human Notch1 intracellular domain, residues 1754-1781 (peptide)
peptide: VLLSRKRRRQHGQLWFPEGFKVSEASKK
notes: NOTCH1, human, RAM domain of the intracellular domain, residues 1754-1781; also called NICD; NICD1; source: synthetic peptide
Kd [1]: 13.3 nM | Kd [2]: 11.5 nM | Kd [3]: 21.4 nM
